Data as given in patent publication US20130202618A1 (PROGENICS PHARMACEUTICALS, published 2013).

How the values were obtained:
Assay in all cases: cell-based or functional assay
[1] = target: T1, C. difficile toxin A from strain Montreal 5 (ribotype 027, BI/NAP1/027) (Clostridium difficile strain Montreal 5)
[2] = target: C. difficile toxin A from strain 630 (ATCC BAA-1382, ribotype 012) (Clostridium difficile strain 630)
[3] = target: C. difficile toxin A from strain UVA30/TL42 (ribotype 014) (Clostridium difficile strain UVA30/TL42)
[4] = target: T2, C. difficile toxin A from strain CCL678 (ribotype 027, BI/NAP1/027) (Clostridium difficile strain CCL678)
[5] = target: C. difficile toxin A from strain 545 (ATCC 43596, ribotype 012) (Clostridium difficile strain 545 (ATCC …))
[6] = target: T3, C. difficile toxin A from strain Pitt 45 (ribotype 027, BI/NAP1/027) (Clostridium difficile strain Pitt 45)
[7] = target: C. difficile toxin A from strain Pitt 07 (ribotype 078) (Clostridium difficile strain Pitt 07)
[8] = target: C. difficile toxin A from strain CCL14137 (ribotype 001) (Clostridium difficile strain CCL14137)
[9] = target: C. difficile toxin A from strain UVA17 (ribotype 002) (Clostridium difficile strain UVA17)
[10] = target: T4, C. difficile toxin A from strain Montreal 7.1 (ribotype 027, BI/NAP1/027) (Clostridium difficile strain Montreal …)
[11] = target: Clostridium difficile toxin A (strain VPI 10463) (Clostridium difficile strain VPI 10463, UniProt P16154 1-2710)
[12] = target: C. difficile toxin A from strain MH5 (ribotype 001) (Clostridium difficile strain MH5)
[13] = target: T5, C. difficile toxin A from strain HMC553 (ribotype 027, BI/NAP1/027) (Clostridium difficile strain HMC553)
[14] = target: C. difficile toxin A from strain Pitt 2 (ribotype 001) (Clostridium difficile strain Pitt 2)
[15] = target: T6, C. difficile toxin A from strain CD196 (ribotype 027, BI/NAP1/027) (Clostridium difficile strain CD196)
[16] = target: T1, C. difficile toxin A from strain …; remark: listed apart in the source
[17] = target: T2, C. difficile toxin A from strain CCL678 …; remark: listed apart in the source
[18] = target: T3, C. difficile toxin A from strain Pitt …; remark: listed apart in the source
[19] = target: T4, C. difficile toxin A from strain …; remark: listed apart in the source
[20] = target: T5, C. difficile toxin A from strain HMC553 …; remark: listed apart in the source
[21] = target: T6, C. difficile toxin A from strain CD196 …; remark: listed apart in the source
[22] = target: T7, Clostridium difficile toxin B (strain VPI 10463) (Clostridium difficile strain VPI 10463, UniProt P18177 2-2366)
[23] = target: T7, Clostridium difficile toxin B (strain …); remark: listed apart in the source

T7 sequence (P18177 2-2366): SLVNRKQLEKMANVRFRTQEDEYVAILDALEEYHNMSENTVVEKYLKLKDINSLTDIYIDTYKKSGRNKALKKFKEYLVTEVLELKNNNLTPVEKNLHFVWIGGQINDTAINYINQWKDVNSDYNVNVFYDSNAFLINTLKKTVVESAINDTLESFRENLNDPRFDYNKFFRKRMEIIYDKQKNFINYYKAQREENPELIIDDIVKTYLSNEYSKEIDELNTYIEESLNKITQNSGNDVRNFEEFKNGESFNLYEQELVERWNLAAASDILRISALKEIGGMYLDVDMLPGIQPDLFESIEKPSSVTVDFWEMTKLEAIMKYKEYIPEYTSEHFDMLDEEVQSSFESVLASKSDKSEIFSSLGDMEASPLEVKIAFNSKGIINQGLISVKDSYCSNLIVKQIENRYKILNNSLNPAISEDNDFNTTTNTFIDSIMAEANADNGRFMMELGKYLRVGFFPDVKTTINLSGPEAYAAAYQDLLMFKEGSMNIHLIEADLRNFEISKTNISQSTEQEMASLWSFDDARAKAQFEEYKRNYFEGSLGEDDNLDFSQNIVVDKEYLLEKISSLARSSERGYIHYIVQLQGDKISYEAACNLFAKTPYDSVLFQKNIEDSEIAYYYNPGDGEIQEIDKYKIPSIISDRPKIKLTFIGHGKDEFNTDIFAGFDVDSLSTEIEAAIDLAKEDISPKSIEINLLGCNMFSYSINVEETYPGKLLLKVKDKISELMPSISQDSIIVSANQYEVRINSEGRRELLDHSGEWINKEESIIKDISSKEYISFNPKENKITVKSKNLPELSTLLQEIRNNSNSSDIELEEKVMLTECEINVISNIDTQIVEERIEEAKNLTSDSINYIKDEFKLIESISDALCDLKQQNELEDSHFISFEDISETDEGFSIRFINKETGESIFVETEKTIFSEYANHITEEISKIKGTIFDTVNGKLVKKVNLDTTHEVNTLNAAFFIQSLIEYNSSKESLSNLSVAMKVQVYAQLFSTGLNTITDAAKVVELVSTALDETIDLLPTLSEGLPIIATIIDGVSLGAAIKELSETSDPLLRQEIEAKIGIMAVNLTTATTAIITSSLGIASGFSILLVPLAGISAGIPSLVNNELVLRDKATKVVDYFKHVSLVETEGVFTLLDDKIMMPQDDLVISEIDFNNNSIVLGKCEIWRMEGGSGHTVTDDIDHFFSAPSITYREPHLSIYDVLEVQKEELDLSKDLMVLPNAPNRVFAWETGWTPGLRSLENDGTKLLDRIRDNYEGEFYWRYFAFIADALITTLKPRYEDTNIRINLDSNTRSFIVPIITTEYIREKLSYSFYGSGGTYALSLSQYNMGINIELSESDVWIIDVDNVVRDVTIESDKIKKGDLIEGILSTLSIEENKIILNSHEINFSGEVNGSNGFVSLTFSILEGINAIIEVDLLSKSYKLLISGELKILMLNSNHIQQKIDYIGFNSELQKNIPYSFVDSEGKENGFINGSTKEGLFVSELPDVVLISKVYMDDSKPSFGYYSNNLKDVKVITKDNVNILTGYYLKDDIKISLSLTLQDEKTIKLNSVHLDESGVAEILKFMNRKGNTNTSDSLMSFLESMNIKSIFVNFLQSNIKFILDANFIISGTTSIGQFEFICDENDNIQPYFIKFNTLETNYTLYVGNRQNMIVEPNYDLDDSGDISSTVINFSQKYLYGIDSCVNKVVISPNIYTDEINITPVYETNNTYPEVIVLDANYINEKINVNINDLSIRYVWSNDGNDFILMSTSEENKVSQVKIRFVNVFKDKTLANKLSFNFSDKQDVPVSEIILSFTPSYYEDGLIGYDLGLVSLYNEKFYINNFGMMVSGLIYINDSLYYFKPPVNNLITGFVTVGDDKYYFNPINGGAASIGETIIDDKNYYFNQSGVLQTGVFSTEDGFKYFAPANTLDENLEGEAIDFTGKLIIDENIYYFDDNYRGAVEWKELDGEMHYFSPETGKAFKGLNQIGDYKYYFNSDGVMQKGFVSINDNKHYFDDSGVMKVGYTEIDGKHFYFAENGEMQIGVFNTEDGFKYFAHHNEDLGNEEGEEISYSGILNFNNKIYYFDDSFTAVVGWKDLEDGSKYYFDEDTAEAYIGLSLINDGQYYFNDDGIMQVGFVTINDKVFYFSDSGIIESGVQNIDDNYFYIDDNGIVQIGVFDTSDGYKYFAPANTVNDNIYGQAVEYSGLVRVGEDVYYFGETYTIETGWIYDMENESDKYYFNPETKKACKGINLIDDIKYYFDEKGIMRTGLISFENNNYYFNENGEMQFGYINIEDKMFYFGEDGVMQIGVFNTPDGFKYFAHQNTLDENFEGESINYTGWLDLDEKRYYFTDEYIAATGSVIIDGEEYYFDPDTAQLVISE
Clostridium difficile toxin A (strain VPI 10463), sequence (P16154 whole entry): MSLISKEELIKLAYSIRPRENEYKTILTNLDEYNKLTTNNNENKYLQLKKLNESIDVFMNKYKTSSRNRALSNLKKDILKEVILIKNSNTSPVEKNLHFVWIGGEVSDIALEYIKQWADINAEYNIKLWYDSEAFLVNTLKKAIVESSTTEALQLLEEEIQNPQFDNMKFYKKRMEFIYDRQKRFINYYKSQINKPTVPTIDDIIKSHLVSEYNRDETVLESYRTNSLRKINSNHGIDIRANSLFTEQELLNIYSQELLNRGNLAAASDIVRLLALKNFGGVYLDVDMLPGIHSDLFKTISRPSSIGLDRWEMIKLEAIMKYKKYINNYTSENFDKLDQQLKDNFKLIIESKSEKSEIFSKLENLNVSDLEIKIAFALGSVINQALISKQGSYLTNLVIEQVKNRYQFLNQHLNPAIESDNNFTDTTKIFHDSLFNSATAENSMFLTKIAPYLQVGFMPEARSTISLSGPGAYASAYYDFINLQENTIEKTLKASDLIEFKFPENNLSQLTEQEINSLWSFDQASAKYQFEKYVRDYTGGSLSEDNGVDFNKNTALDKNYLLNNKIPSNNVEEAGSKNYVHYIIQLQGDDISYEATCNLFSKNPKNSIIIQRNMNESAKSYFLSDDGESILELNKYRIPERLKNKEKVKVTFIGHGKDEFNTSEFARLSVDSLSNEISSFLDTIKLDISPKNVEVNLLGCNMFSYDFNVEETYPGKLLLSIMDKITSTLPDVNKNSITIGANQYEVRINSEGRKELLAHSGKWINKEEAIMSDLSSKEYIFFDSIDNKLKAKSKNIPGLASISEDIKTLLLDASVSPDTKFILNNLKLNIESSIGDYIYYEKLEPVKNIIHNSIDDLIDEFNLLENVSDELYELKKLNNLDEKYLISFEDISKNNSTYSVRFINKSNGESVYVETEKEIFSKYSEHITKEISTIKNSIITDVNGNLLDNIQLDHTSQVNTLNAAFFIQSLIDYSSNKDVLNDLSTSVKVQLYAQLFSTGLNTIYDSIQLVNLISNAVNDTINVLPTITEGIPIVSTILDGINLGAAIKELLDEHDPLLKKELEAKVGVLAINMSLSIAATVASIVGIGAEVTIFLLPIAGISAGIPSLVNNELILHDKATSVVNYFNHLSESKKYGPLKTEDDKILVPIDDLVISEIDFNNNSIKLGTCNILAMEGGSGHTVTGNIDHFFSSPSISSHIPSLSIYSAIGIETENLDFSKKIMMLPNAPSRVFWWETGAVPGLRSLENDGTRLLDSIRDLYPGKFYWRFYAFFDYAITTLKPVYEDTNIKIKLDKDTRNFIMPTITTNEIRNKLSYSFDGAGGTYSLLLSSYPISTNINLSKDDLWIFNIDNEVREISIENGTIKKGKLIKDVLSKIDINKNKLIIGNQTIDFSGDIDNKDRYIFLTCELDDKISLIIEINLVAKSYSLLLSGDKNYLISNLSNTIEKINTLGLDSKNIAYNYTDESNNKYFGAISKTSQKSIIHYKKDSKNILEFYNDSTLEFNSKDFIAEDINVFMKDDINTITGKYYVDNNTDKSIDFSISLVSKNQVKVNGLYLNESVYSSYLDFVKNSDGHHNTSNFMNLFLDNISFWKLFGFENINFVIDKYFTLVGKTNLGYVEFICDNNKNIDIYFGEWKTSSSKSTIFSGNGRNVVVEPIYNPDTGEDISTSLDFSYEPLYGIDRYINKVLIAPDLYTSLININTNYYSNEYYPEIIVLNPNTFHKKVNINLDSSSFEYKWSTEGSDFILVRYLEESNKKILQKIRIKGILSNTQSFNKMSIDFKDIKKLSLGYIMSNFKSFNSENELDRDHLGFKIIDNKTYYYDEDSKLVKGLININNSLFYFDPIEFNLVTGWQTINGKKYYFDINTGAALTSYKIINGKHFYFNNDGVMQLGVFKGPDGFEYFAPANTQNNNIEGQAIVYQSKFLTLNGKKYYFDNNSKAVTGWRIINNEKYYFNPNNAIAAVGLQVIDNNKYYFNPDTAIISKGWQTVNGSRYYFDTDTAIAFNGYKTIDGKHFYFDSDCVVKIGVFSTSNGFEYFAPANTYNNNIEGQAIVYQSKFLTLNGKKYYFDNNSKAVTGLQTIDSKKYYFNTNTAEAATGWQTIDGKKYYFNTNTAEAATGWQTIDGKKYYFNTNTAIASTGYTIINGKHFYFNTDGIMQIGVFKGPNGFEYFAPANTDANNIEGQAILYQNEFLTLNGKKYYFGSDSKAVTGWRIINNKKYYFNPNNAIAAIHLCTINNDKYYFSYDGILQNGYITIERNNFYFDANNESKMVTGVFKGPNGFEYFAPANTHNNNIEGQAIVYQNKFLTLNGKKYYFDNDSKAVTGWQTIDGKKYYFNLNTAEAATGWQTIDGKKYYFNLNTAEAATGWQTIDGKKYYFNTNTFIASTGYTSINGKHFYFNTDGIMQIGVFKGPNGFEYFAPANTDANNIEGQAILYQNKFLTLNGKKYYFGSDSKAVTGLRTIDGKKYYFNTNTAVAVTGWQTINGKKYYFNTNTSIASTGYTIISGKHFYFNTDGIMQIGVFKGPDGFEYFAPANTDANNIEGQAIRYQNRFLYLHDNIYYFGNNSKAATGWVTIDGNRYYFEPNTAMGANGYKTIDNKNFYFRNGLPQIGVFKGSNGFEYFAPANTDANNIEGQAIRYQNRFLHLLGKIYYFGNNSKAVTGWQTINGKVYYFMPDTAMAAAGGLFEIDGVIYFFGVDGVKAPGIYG

B1: humanized anti-C. difficile toxin A monoclonal antibody PA-50 (antibody, V domains shown)
VH: QVQLVQSGAEVKKPGASVKVSCKASGYTFTDYNMDWVRQAPGQRLEWIGDINPKYDIIGHNPKFMGKATITVDKSASTAYMELSSLRSEDTAVYYCARSDRGWYFDVWGQGTLVTVSS
VL: EIVLTQSPATLSLSPGERATLSCRASSSVNYMNWYQQKPGQAPRPRIYATSNLASGVPARFSGSGSGTDYTLTISSLEPEDFAVYYCQQWSSRTFGGGTKLEIKR
EC50, neutralization of supernatant cytotoxicity on T-84 cells [1]: 0.029 nM | EC50, neutralization of supernatant cytotoxicity on T-84 cells [2]: 0.054 nM | EC50, neutralization of supernatant cytotoxicity on T-84 cells [3]: 0.051 nM | EC50, neutralization of supernatant cytotoxicity on T-84 cells [4]: 0.029 nM | EC50, neutralization of supernatant cytotoxicity on T-84 cells [5]: 0.038 nM | EC50, neutralization of supernatant cytotoxicity on T-84 cells [6]: 0.043 nM | EC50, neutralization of supernatant cytotoxicity on T-84 cells [7]: 0.032 nM | EC50, neutralization of supernatant cytotoxicity on T-84 cells [8]: 0.039 nM | EC50, neutralization of supernatant cytotoxicity on T-84 cells [9]: 0.026 nM | EC50, neutralization of supernatant cytotoxicity on T-84 cells [10]: 0.031 nM | EC50, neutralization of supernatant cytotoxicity on T-84 cells [11]: 0.02 nM | EC50, neutralization of supernatant cytotoxicity on T-84 cells [12]: 0.127 nM | EC50, neutralization of supernatant cytotoxicity on T-84 cells [13]: 0.029 nM | EC50, neutralization of supernatant cytotoxicity on T-84 cells [14]: 0.027 nM | EC50, neutralization of supernatant cytotoxicity on T-84 cells [15]: 0.061 nM | neutralization activity on T-84 cells relative to comparator mAb CDA-1 [16]: > 100 fold | neutralization activity on T-84 cells relative to comparator mAb CDA-1 [17]: > 100 fold | neutralization activity on T-84 cells relative to comparator mAb CDA-1 [18]: > 100 fold | neutralization activity on T-84 cells relative to comparator mAb CDA-1 [19]: > 100 fold | neutralization activity on T-84 cells relative to comparator mAb CDA-1 [20]: > 100 fold | neutralization activity on T-84 cells relative to comparator mAb CDA-1 [21]: > 100 fold

B2: humanized anti-C. difficile toxin B monoclonal antibody PA-41 (antibody, V domains shown)
VH: QVQLVQSGAEVKKPGASVKVSCKASGYPFTNYFMHWVRQAPGQRLEWIGRINPYNGATSYSLNFRDKATITLDKSASTAYMELSSLRSEDTAVYYCARSTITSPLLDFWGQGTLVTVSS
VL: EIVLTQSPATLSLSPGERATLSCRASQSVGTSIHWYQQKPGQAPRLLIKFASESISGIPARFSGSGSGTDFTLTISSLEPEDFAVYYCQQSNKWPFTFGQGTKLEIKR
EC50, neutralization of supernatant cytotoxicity on CHO-K1 cells [22]: 0.0077 nM | EC50, neutralization of toxin B cytotoxicity on CHO-K1 cells (toxin B 2 pg/mL) [23]: 6000 nM | EC50, neutralization on IMR-90 cells [23]: 5000 nM
